Laboratory results reported in patent publication US20160319265.

Tested on: TEV substrate

Substance: AcTEV protease
- TEV Substrate Cleavage (%), 30 minute: 73.9%
- TEV Substrate Cleavage (%), 60 minute: 91.6%
- TEV Substrate Cleavage (%), 120 minute: 97.2%
